14 molecules from publication PMC12014896 (2025) can be followed below.

The labels stand for the following.
B1: COVIC-183 (antibody, V domains shown)
VH: EVHLVESGGGLVQPGGSLRLSCAASGFTFSDHYMDWVRQAPGKGLEWVGRTRNKANSYTTEYAASVKGRFTISRDDAKNSLYLQMNSLKTEDTAVYYCARVHRWAYCINGVCFGAYSDYWGQGTLVTVSS
VL: not shown
B2: COVIC-252 (antibody, V domains shown)
VH: EVQLLESGGGLIQPGGSLRLSCAASGFIVSSNYMSWVRQAPGKGLEWVSVIYSGGSTFYADSVKGRFTISRDNSNNTLYLQMNSLRAEDTAVYYCARDYGDFYFDYWGQGTLVTVSS
VL: DIQMTQSPSTLSVSPGERATLSCRASQSVSSNLAWYQQKPGQAPRLLIYGASTRATGIPVRFSGSGSGTESTLTISSLQSEDFAVYYCQQYNKWPRTFGQGTKVEIK
B3: COVIC-168 (antibody, V domains shown)
VH: EVQLVESGGGLIQPGGSLRLSCAASGVTVSSNYMNWVRQAPGKGLEGVSVIYSGGTTYYADSVKGRFTISRDNSKNTLYLQMNSLRAEDTAVYYCARDTVVYGMDVWGQGTTVTVSS
VL: DIQLTQSPSFLSASVGDRVTITCWASQGISSYLAWYQQKPGKAPKLLIYTASTLQSGVPSRFSGSGSGTEFTLTISSLQPEDFATYYCQQLNSYPLTFGGGTKVEIKR
B4: COVIC-151 (antibody, V domains shown)
VH: QVQLQESGPGLVKPSQTLSLTCTVSGGSISSYGYYWNWIRQHPGKGLEWIGYIYYSGSTYYNPSLKSRVTISVDTSKNQLSLRLNSVSAADTAVYYCARDFGGNSNYFDYWGQGTLVTVSS
VL: AIQLTQSPSSLSASVGDRVTITCRTSQGISSALAWYQQKPGKAPKLLIYDASSLESGVPSRFSGSGSGTDFTLTISSLQPEDFATYYCQQFNSYPLTFGGGTKVEIKR
B5: COVIC-59 (antibody, V domains shown)
VH: QVQLQESGGGLVQAGGSLRLSCAASGRTFSEYAMGWFRQAPGKEREFVATISWSGGSTYYTDSVKGRFTISRDNAKNTVYLQMNSLKPDDTAVYYCAAAGLGTVVSEWDYDYDYWGQGTQVTVSS
B6: COVIC-55 (antibody, V domains shown)
VH: QVQLQESGGGLVQAGGSLRLSCAASGRTFSEYAMGWFRQAPGKEREFVATISWSGGSTYYTDSVKGRFTISRDNAKNTVYLQMNSLKPDDTAVYYCAAAGLGTVVSEWDYDYDYWGQGTQVTVSS
B7: COVIC-366 (antibody, V domains shown)
VH: EVQLVESGGGLVQPGRSLRLSCAASGFSLDDYGMHWVRQAPGKGLEWVSGISWNSGDRGYADSVKGRFTISRDNAKNSLYLQMNSLRAEDTALYYCAKGSGAHYDIMTGARLDYWGQGTLVTVSS
VL: DIQMTQSPSSLSASVGDRVTITCRASQSITNYLNWYQQKPGKVPKLLIYAASILQSGVPSRFSGSGSGTDFTLTISSLQPEDFATYYCQQSYSTPWTFGQGTKVEIKR
B8: COVIC-134 (antibody, V domains shown)
VH: EVQLVESGGGVVQPGRSLRLSCAASGFTFSSYGMHWVRQAPGKGLEWVAVIWYDGSNKYYADSVKGRFTISRDNSKNTLYLQMNSLRAEDTAVYYCAKGPDILTGYYNYYYYGMDVWGQGTMVTVSS
VL: QSVLTQPPSVSGAPGQRVTISCTGSSSNIGAGYDVHWYQQLPGTAPKLLIYGNSNRPSGVPDRFSGSKSGTSASLAITGLQAEDEADYYCQSYDSSLSGFYVVFGGGTKLTVL
B9: COVIC-304 (antibody, V domains shown)
VH: QVQLQQWGAGLLKPSETLSLKCAVYGGSFSGYYWGWIRQSTGKGLEWIGEINRSGSTNYNPSLKSRVTISVDTSKNQFSLKLSSVTAADTAVYYCARGGARYYYGSGSYRSTPRPYYFDYWGQGTLVTVSS
VL: SYELTQPPSVSVAPGETARITCGGDNIGRRHVHWYQQKPGQAPVLVIYDDSDRPSGIPDRFSGSNSGNTATLTIGRVEAGDEADYYCQVWGSSNDPHVFGTGTKLTVLG
B10: COVIC-124 (antibody)
chain: QVQLQESGGGLVQAGGSLRLSCAASGRTFSEYAMGWFRQAPGKEREFVATISWSGGSTYYTDSVKGRFTISRDNAKNTVYLQMNSLKPDDTAVYYCAAAGLGTVVSEWDYDYDYWGQGTQVTVSSGGSGGSQVQLQESGGGLVQAGGSLRLSCAASGRTFSEYAMGWFRQAPGKEREFVATISWSGGSTYYTDSVKGRFTISRDNAKNTVYLQMNSLKPDDTAVYYCAAAGLGTVVSEWDYDYDYWGQGTQVTVSSGGGGSGGGGSEPKSCDKTHTCPPCPAPELLGGKKKPLDGEYFTLQIRGRERFEMFRELNEALELKDAQAGKEPGGGGGSGGGGSQVQLQESGGGLVQAGGSLRLSCAASGRTFSEYAMGWFRQAPGKEREFVATISWSGGSTYYTDSVKGRFTISRDNAKNTVYLQMNSLKPDDTAVYYCAAAGLGTVVSEWDYDYDYWGQGTQVTVSSGGSGGSQVQLQESGGGLVQAGGSLRLSCAASGRTFSEYAMGWFRQAPGKEREFVATISWSGGSTYYTDSVKGRFTISRDNAKNTVYLQMNSLKPDDTAVYYCAAAGLGTVVSEWDYDYDYWGQGTQVTVSS
B11: COVIC-79 (antibody, V domains shown)
VH: EVQLVESGGGLIQPGGSLRLSCAASGFIVSRNYMIWVRQAPGKGLEWVSVIYSGGSTFYADSVKGRFTISRDNSKNTLYLQMNSLRAEDTAVYYCARDLEVAGAIDYWGQGTLVTVSS
VL: EIVLTQSPGTLSLSPGERATLSCRASQSISSSYLAWYQQKPGQAPRLLIYGATSRATGTPDRFSGSGSGTDFTLTINRLEPEDFAVYYCQQYGSSPGYTFGQGTKLEIK
B12: COVIC-141 (antibody, V domains shown)
VH: QVQLQESGPGLVKPSQTLSLTCTVSGGSISSGGYYWSWIRQHPGKGLEWIGYIYYSGNTYYNPSLKSRVTMSVDTSKNQFSLKLTSVTAADTAVYYCASTARPLTNAEYFQHWGQGTLVTVSS
VL: DIQLTQSPGTLSLSPGERATLSCRASQSVSSSYLAWYQQKPGQAPRLLIYGTSSRATGIPDRFSGSGSGTDFTLTISRLEPEDFAVYYCQQYRTFGQGTKVEIK
B13: COVIC-313 (antibody)
chain 1: QVQLVQSGAEVKKPGSSVKVSCKASGGTFGISWVRQAPGQGLEWMGRIIPILGTANHAQKFQGRVTITADKSTGTVYMELSSLRSEDTAVYYCARDGDSGSYYETLGFDYWGQGTLVTVSSASTKGPSVFPLAPEVQLVESGGGLVKPGGSLRLSCAASGFTFSPYSMNWVRQAPGKGLEWVSSISVSNIYTYYADSVKGRFTISRDNAKNSLYLQMNSLRAEDTAIYYCARDLKKGGIQYDAFDIWGQGTVVTVSS
chain 2: QSALTQPPSASGSPGQSVTISCTGTSSDVGGYNYVSWYQQHPGKAPKLMIYEVNKRPSGVPDRFSGSKSGNTASLTVSGLQAEDEADYYCSSYAGSNNLVFGGGTKLTVLQPKAAPSVTLFPPEIVLTQSPATLSLSPGERATLSCRASQSVNDYLAWYQQKPGQAPRLLIYDASNRATGFPARFSGSGSGTDFTLTISSLEPEDFAVYYCQQRSNWPPTFGQGTRLEIK
B14: COVIC-139 (antibody, V domains shown)
VH: EVQLVESGGGVVQPGRSLRLSCAASGFTFSSYGMHWVRQAPGKGLEWVAVISYDGSNKYYADSVKGRFTISRDNSKNTLYLQMNSLRAEDTAVYYCANGFGEYYYYAMDVWGQGTTVTVSS
VL: NFMLTQPHSVSESPGKTVTISCTGSSGSIASNYVQWYQRRPGSAPTTVIYEDNQRPSGVPDRFSASIDSSSNSASLTISGLKTEDEADYYCQSYDSSNWVFGGGTKLTVL

The term Kd denotes the concentration at which binding is half-saturated. Higher therefore signals a looser complex.

The target of the experiment is SARS-CoV-2 spike RBD (Wuhan-Hu-1) (Severe acute respiratory syndrome …, UniProt P0DTC2). Nature of the experiment: SPR. In general terms: In SPR one partner is held on a chip, and binding of the other changes the refractive index at the surface.
Molecule B1 returned a Kd of 6.97 nM.

Molecule B2 gave a dissociation constant Kd of 15.1 nM.

As to B3, binding was put at a Kd of 24.1 nM.

Molecule B4 displayed a Kd of 6.31 nM.

The molecule B5 had a Kd of 201 nM.

On to B6, for which binding was put at a Kd of 115 nM.

Turning to B7, the Kd was determined as 0.0703 nM.

For B8, binding was characterised by a dissociation constant (Kd) of 90 nM.

Turning to B9, binding was characterised by a dissociation constant (Kd) of 197 nM.

B10: the Kd worked out at 167 nM.

In turn, B11 showed a Kd of 0.745 nM.

In turn, B12 had a Kd of 107 nM.

Regarding B13, the equilibrium dissociation constant (Kd) was found to be 0.155 nM.

As to B14, binding was characterised by a dissociation constant (Kd) of 44.6 nM.
